These results are taken from publication doi:10.1101/2021.06.01.446672 (bioRxiv, 2021).

The kon is a measure of how fast the partners come together. Higher therefore signals fast association. What is called stoichiometry N is the number of molecules, sites or subunits per partner or assembly.

The labels stand for the following.
B2: PYP-binding protein (PBP) from Rhodobacter capsulatus (natural protein, UniProt D5AR21 1-142, looked up)
chain: MDIVGQLMTDNGRYTFRSDTLNLRVTGDFPEWVMAAAAEMVGIVARREVDSKIDELQALVEFGEASEIEIDSVKYDAKERFEIIPQCVVTMGRTDYRWVAPEGRAKHCATFDGNPVTRVHDMSMTRNDSFLDNENGVDTSGH

For data set [1], the target named is B2. Briefly: transient absorption.
For data set [2], the target named is B2. Briefly: transient grating.
The data set “SEC” deals with the molecule itself. Briefly: SEC. For orientation: In gel filtration, larger molecules generally elute earlier.

B1: Photoactive yellow protein from Rhodobacter capsulatus (Rc-PYP) (natural protein, UniProt O69138 1-124, looked up)
chain: MEIIPFGTNDIDNILAREPARAESLPFGAVLLDRMGRIAKYNKAEGLIAGRDPSTVIGRDFFNEIAPCAKGKRFHGEFLKFNRTGQANVMLDYKFNYKGAEVAVKIHLKSQPDGQFCWLFVKRA
modifications: chromophore (protonated in pUV, deprotonated in pBL; isomerised on photoexcitation)
B1: the on-rate (kon) in data set [1] stood at 1.2e+06 M⁻¹ s⁻¹; in data set [2], 1.1e+06 M⁻¹ s⁻¹.

For B2, in “SEC”, the “stoichiometry N” value stood at 2.
